Results as given in US20220010021A1 (Sanofi, published 2022).
Residue numbers refer to the chain shown, from its start.

B1: 16H7 variant with light chain substitution N93D (antibody, human IgG4 S228P, lambda, V domains shown)
VH: not shown
VL: SYVLTQPPSVSVAPGQTARITCGGNNIGSESVHWYQQKPGQAPVLVVYDDSDRPSGIPERFSGSNSGNTATLTISRVEAGDEADYYCQVWDGDSDHVVFGGGTKLTVLG
notes: IgG4 backbone was used
B2: 16H7 variant with light chain substitution N93V (antibody, human IgG4 S228P, lambda, V domains shown)
VH: not shown
VL: B1 VL with D93V
notes: IgG4 backbone was used
B3: 16H7 variant with light chain substitution S94W (antibody, human IgG4 S228P, lambda, V domains shown)
VH: not shown
VL: B1 VL with D93N, S94W
notes: IgG4 backbone was used
B4: 16H7 variant with light chain substitution V98F (antibody, human IgG4 S228P, lambda, V domains shown)
VH: not shown
VL: B1 VL with D93N, V98F
notes: IgG4 backbone was used
B5: 16H7 variant with light chain substitution S94L (antibody, human IgG4 S228P, lambda, V domains shown)
VH: not shown
VL: B1 VL with D93N, S94L
notes: IgG4 backbone was used
B6: 16H7 variant with light chain substitution S94Y (antibody, human IgG4 S228P, lambda, V domains shown)
VH: not shown
VL: B1 VL with D93N, S94Y
notes: IgG4 backbone was used
B7: 16H7 variant with light chain substitution S94D (antibody, human IgG4 S228P, lambda, V domains shown)
VH: not shown
VL: B1 VL with D93N, S94D
notes: IgG4 backbone was used
B8: 16H7 variant with light chain substitution S94E (antibody, human IgG4 S228P, lambda, V domains shown)
VH: not shown
VL: B1 VL with D93N, S94E
notes: IgG4 backbone was used
B9: 16H7 variant with light chain substitution V97I (antibody, human IgG4 S228P, lambda, V domains shown)
VH: not shown
VL: B1 VL with D93N, V97I
notes: IgG4 backbone was used
B10: 16H7 variant with light chain substitution N93S (antibody, human IgG4 S228P, lambda, V domains shown)
VH: not shown
VL: B1 VL with D93S
notes: IgG4 backbone was used
B11: 16H7 variant with light chain substitution S94R (antibody, human IgG4 S228P, lambda, V domains shown)
VH: not shown
VL: B1 VL with D93N, S94R
notes: IgG4 backbone was used
B12: 16H7 variant with light chain substitution V97F (antibody, human IgG4 S228P, lambda, V domains shown)
VH: not shown
VL: B1 VL with D93N, V97F
notes: IgG4 backbone was used
B13: 16H7 variant with light chain substitution S94I (antibody, human IgG4 S228P, lambda, V domains shown)
VH: not shown
VL: B1 VL with D93N, S94I
notes: IgG4 backbone was used
B14: 16H7 variant with light chain substitution V97M (antibody, human IgG4 S228P, lambda, V domains shown)
VH: not shown
VL: B1 VL with D93N, V97M
notes: IgG4 backbone was used
B15: 16H7 variant with light chain substitution S94M (antibody, human IgG4 S228P, lambda, V domains shown)
VH: not shown
VL: B1 VL with D93N, S94M
notes: IgG4 backbone was used
B16: 16H7 variant with light chain substitution N93F (antibody, human IgG4 S228P, lambda, V domains shown)
VH: not shown
VL: B1 VL with D93F
notes: IgG4 backbone was used
B17: 16H7 variant with light chain substitution S94F (antibody, human IgG4 S228P, lambda, V domains shown)
VH: not shown
VL: B1 VL with D93N, S94F
notes: IgG4 backbone was used
B18: 16H7 variant with light chain substitution V98C (antibody, human IgG4 S228P, lambda, V domains shown)
VH: not shown
VL: B1 VL with D93N, V98C
notes: IgG4 backbone was used
B19: 16H7 variant with light chain substitution S94N (antibody, human IgG4 S228P, lambda, V domains shown)
VH: not shown
VL: B1 VL with D93N, S94N
notes: IgG4 backbone was used
B20: 16H7 variant with light chain substitution S94C (antibody, human IgG4 S228P, lambda, V domains shown)
VH: not shown
VL: B1 VL with D93N, S94C
notes: IgG4 backbone was used
B21: 16H7 variant with light chain substitution V97T (antibody, human IgG4 S228P, lambda, V domains shown)
VH: not shown
VL: B1 VL with D93N, V97T
notes: IgG4 backbone was used
B22: 16H7 variant with light chain substitution V97N (antibody, human IgG4 S228P, lambda, V domains shown)
VH: not shown
VL: B1 VL with D93N, V97N
notes: IgG4 backbone was used
B23: 16H7 variant with light chain substitution V97L (antibody, human IgG4 S228P, lambda, V domains shown)
VH: not shown
VL: B1 VL with D93N, V97L
notes: IgG4 backbone was used
B24: 16H7 variant with light chain substitution N93R (antibody, human IgG4 S228P, lambda, V domains shown)
VH: not shown
VL: B1 VL with D93R
notes: IgG4 backbone was used
B25: 16H7 variant with light chain substitution S94V (antibody, human IgG4 S228P, lambda, V domains shown)
VH: not shown
VL: B1 VL with D93N, S94V
notes: IgG4 backbone was used
B26: 16H7 variant with light chain substitution N93Y (antibody, human IgG4 S228P, lambda, V domains shown)
VH: not shown
VL: B1 VL with D93Y
notes: IgG4 backbone was used
B27: 16H7 variant with light chain substitution S94A (antibody, human IgG4 S228P, lambda, V domains shown)
VH: not shown
VL: B1 VL with D93N, S94A
notes: IgG4 backbone was used
B28: 16H7 variant with light chain substitution S94T (antibody, human IgG4 S228P, lambda, V domains shown)
VH: not shown
VL: B1 VL with D93N, S94T
notes: IgG4 backbone was used
B29: 16H7 variant with light chain substitution N93T (antibody, human IgG4 S228P, lambda, V domains shown)
VH: not shown
VL: B1 VL with D93T
notes: IgG4 backbone was used
B30: 16H7 variant with light chain substitution V97C (antibody, human IgG4 S228P, lambda, V domains shown)
VH: not shown
VL: B1 VL with D93N, V97C
notes: IgG4 backbone was used

How the values were obtained:
beta-Klotho (KLB) = molecular target: T1, beta-Klotho (KLB) (Homo sapiens (Human), UniProt Q86Z14 1-996); assay: BLI (Octet) off-rate screening, mAb from supernatant on anti-hIgG Fc sensor, 5 nmol/L KLB;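 note: dissociation followed for 1800 s in D-PBS plus 0.1% BSA, antibody supernatants applied at 25 µg/mL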
T1 construct: also called β-Klotho; not shown: C-terminal His tag of the bought R&D Systems protein
T1 sequence: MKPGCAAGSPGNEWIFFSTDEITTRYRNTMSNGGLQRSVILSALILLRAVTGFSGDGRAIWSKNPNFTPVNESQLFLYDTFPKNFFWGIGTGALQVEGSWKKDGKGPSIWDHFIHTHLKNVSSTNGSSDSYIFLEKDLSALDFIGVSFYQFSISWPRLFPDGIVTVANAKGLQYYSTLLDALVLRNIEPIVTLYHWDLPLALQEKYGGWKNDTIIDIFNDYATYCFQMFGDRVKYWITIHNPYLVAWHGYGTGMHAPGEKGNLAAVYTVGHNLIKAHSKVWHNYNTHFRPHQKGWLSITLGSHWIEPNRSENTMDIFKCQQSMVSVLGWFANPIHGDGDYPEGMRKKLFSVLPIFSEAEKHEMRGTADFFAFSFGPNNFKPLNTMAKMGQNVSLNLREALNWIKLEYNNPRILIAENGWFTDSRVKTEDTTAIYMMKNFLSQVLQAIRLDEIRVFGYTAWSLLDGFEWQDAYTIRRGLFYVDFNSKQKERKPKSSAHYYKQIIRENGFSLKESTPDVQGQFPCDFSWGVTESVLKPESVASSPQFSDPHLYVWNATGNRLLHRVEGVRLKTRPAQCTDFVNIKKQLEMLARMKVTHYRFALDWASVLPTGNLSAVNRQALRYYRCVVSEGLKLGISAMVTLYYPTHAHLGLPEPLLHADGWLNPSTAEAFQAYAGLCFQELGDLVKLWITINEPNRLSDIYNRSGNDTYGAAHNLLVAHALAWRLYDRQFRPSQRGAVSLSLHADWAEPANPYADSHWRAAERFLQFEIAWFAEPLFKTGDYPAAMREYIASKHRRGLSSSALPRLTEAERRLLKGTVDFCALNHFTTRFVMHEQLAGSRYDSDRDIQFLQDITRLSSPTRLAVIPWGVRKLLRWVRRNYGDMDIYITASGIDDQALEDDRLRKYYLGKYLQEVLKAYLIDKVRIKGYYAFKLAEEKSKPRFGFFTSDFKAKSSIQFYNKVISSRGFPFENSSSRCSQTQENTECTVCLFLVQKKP

[1] = molecular target: cell surface receptor composed of the tyrosine kinase receptor FGFR1c and co-receptor beta-Klotho (KLB) (human, UniProt P11362 22-822; Q86Z14 1-1044); assay: cell-based or functional assay
Sequence of cell surface receptor composed of the tyrosine kinase receptor FGFR1c and co-receptor beta-Klotho (KLB) (P11362 22-822, one chain of several): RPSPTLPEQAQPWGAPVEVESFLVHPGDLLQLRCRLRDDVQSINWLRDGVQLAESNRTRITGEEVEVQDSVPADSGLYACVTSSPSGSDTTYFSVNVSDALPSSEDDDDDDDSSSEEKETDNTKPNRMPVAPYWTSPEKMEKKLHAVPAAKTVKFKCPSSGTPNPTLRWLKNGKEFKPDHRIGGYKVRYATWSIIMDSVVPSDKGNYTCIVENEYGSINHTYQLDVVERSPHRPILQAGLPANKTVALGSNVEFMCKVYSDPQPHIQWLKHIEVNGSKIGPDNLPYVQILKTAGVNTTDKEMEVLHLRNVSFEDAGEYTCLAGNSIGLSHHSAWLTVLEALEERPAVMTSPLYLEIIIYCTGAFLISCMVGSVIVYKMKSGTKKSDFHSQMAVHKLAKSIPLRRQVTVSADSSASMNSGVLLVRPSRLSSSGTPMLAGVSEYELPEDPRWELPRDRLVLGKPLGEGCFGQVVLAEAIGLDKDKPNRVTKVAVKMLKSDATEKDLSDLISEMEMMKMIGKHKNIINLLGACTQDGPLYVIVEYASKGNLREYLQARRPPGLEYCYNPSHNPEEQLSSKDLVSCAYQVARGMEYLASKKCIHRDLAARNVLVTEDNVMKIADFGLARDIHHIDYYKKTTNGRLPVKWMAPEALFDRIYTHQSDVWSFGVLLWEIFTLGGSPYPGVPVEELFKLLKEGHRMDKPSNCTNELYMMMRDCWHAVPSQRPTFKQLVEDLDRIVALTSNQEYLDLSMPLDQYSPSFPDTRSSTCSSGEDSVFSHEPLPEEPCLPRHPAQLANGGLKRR

Row | Binder | koff (beta-Klotho (KLB)) | Mean E max, Luciferase gene reporter assay [1] | Mean EC50, Luciferase gene reporter assay [1]
1 | B1 | 3.8e-05 s⁻¹ | 108% | 0.123 nM
2 | B2 | 4e-05 s⁻¹ | 108% | 0.139 nM
3 | B3 | 4.3e-05 s⁻¹ | 103% | 0.159 nM
4 | B4 | 1.6e-05 s⁻¹ | 102% | 0.161 nM
5 | B5 | 4.4e-05 s⁻¹ | 103% | 0.169 nM
6 | B6 | 6.2e-05 s⁻¹ | 100% | 0.098 nM
7 | B7 | 3.4e-05 s⁻¹ | 103% | 0.122 nM
8 | B8 | 1.4e-05 s⁻¹ | 100% | 0.122 nM
9 | B9 | 1.7e-05 s⁻¹ | 110% | 0.12 nM
10 | B10 | 3.4e-05 s⁻¹ | 101% | 0.105 nM
11 | B11 | 5.7e-05 s⁻¹ | 104% | 0.123 nM
12 | B12 | 2.1e-05 s⁻¹ | 45% | 3.02 nM
13 | B13 | 4.3e-05 s⁻¹ | 106% | 0.126 nM
14 | B14 | 3.3e-05 s⁻¹ | 103% | 0.214 nM
15 | B15 | 1.2e-05 s⁻¹ | 101% | 0.117 nM
16 | B16 | 2.2e-06 s⁻¹ | 100% | 0.165 nM
17 | B17 | 1e-07 s⁻¹ | 100% | 0.132 nM
18 | B18 | 6.4e-05 s⁻¹ | 100% | 0.105 nM
19 | B19 | 3.3e-05 s⁻¹ | 103% | 0.133 nM
20 | B20 | 1e-07 s⁻¹ | 99% | 0.138 nM
21 | B21 | 0.0001 s⁻¹ | 99% | 0.142 nM
22 | B22 | 0.00033 s⁻¹ | 95% | 0.206 nM
23 | B23 | 5.9e-05 s⁻¹ | 110% | 0.129 nM
24 | B24 | 5e-05 s⁻¹ | 100% | 0.186 nM
25 | B25 | 2.8e-05 s⁻¹ | 108% | 0.119 nM
26 | B26 | 6.5e-05 s⁻¹ | 105% | 0.108 nM
27 | B27 | 4.6e-05 s⁻¹ | 99% | 0.107 nM
28 | B28 | 3.2e-05 s⁻¹ | 109% | 0.116 nM
29 | B29 | 3.1e-05 s⁻¹ | 103% | 0.161 nM
30 | B30 | 0.00023 s⁻¹ | 104% | 0.19 nM
